This sample holds only a part of the variants without activity.
Legend:
biotinyl-Val-oxazolone = assay: self-aminoacylation, catalytic enhancement (BVO) (fold over background); higher = more active; k-Seq, kA / k0A0; sequences stand for … in GGGAAUGGAUCCACAUCUACGAAUUC…UUCACUGCAGACUUGACGAAGCUG
Outline: (§1)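 Mutagenized RNA pools with a 21-nt variable region (0.43 μM) reacted with each biotinyl-aminoacyl-oxazolone at 2–1250 μM. Reactions ran in 50 μL HEPES/NaCl/KCl/MgCl2/CaCl2 buffer with 5% acetonitrile, pH 6.9–7.0, for 90 minutes at room temperature. Streptavidin-captured RNA was quantified by triplicate qPCR and Illumina sequencing, and per-sequence fraction reacted was fit to a pseudo-first-order model with 1000 bootstraps. Catalytic enhancement is median kA divided by the uncatalyzed rate, the low-activity peak of a bimodal Gaussian fit.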

biotinyl-Leu-oxazolone = assay: self-aminoacylation, catalytic enhancement (BLO) (fold over background); higher = more active; k-Seq, kA / k0A0; sequences stand for … in GGGAAUGGAUCCACAUCUACGAAUUC…UUCACUGCAGACUUGACGAAGCUG
Outline: as §1

biotinyl-Trp-oxazolone = assay: self-aminoacylation, catalytic enhancement (BWO) (fold over background); higher = more active; k-Seq, kA / k0A0; sequences stand for … in GGGAAUGGAUCCACAUCUACGAAUUC…UUCACUGCAGACUUGACGAAGCUG
Outline: as §1

biotinyl-Met-oxazolone = assay: self-aminoacylation, catalytic enhancement (BMO) (fold over background); higher = more active; k-Seq, kA / k0A0; sequences stand for … in GGGAAUGGAUCCACAUCUACGAAUUC…UUCACUGCAGACUUGACGAAGCUG
Outline: as §1

biotinyl-Phe-oxazolone = assay: self-aminoacylation, catalytic enhancement (BFO) (fold over background); higher = more active; k-Seq, kA / k0A0; sequences stand for … in GGGAAUGGAUCCACAUCUACGAAUUC…UUCACUGCAGACUUGACGAAGCUG
Outline: as §1

biotinyl-Ile-oxazolone = assay: self-aminoacylation, catalytic enhancement (BIO) (fold over background); higher = more active; k-Seq, kA / k0A0; sequences stand for … in GGGAAUGGAUCCACAUCUACGAAUUC…UUCACUGCAGACUUGACGAAGCUG
Outline: as §1

Sequence	self-aminoacylation (biotinyl-Val-oxazolone)	self-aminoacylation (biotinyl-Leu-oxazolone)	self-aminoacylation (biotinyl-Trp-oxazolone)	self-aminoacylation (biotinyl-Met-oxazolone)	self-aminoacylation (biotinyl-Phe-oxazolone)	self-aminoacylation (biotinyl-Ile-oxazolone)
CCACGCUUCAAGGAAUCGGUC [Fam1B.1 aminoacylation ribozyme variant]	1.1	1.19	11	1.22	11.6	1.11
CCACGCUUCAAUCAAUCGGUC [Fam1B.1 aminoacylation ribozyme variant]	1.18	1.34	20	0.865	30.8	1.01
CCACGCUUCACGCAAUCGGUC [Fam1B.1 aminoacylation ribozyme variant]	1.82	1.09	1.95	1.4	0.964	1.15
CCACGCUUCCAGCAAUCGGUC [Fam1B.1 aminoacylation ribozyme variant]	1.11	1.05	1.12	0.936	0.836	1.11
CCACGCUUGAAGCAAUCGGUC [Fam1B.1 aminoacylation ribozyme variant]	1.28	0.714	1.01	0.861	0.547	0.895
CCACUCAUCAAGCAAUCGGUC [Fam1B.1 aminoacylation ribozyme variant]	0.971	0.997	0.731	0.73	0.817	0.977
CCACUCUUCAAGCAAUCGUUC [Fam1B.1 aminoacylation ribozyme variant]	0.857	0.724	0.68	0.915	1.06	0.87
CCACUUCAAACAAUCGGUCUG [Fam1A.1 aminoacylation ribozyme variant]	1.63	2.75	49.3	1.76	114	1.51
CCACUUCAAACAAUCUGUCUG [Fam1A.1 aminoacylation ribozyme variant]	0.641	0.642	1.78	0.511	2.99	0.723
CCACUUCAAACAGUCGGUCUG [Fam1A.1 aminoacylation ribozyme variant]	1.39	0.89	1.54	1.09	0.637	1.19
CCACUUCAAGCAAUCGGUCUG [Fam1A.1 aminoacylation ribozyme variant]	1.28	1.22	11.8	1.15	18.6	1.23
CCACUUGAAACAAUCGGUCUG [Fam1A.1 aminoacylation ribozyme variant]	1.18	1.03	0.785	1.19	0.824	1.15
CCAGACUACAAGCAAUCGGUC [Fam1B.1 aminoacylation ribozyme variant]	1.42	1.17	1.35	1.16	1.07	1.26
CCAGACUUCAAGCAAGCGGUC [Fam1B.1 aminoacylation ribozyme variant]	0.932	1.15	0.843	0.821	0.523	0.87
CCAGACUUCAAGCAAUCGCUC [Fam1B.1 aminoacylation ribozyme variant]	2.11	2.71	1.54	2.06	5.36	2.23
CCAGACUUCAAGCAAUGGGUC [Fam1B.1 aminoacylation ribozyme variant]	0.856	0.759	0.74	0.72	0.887	0.856
CCAGACUUCAAGCUAUCGGUC [Fam1B.1 aminoacylation ribozyme variant]	1.41	1.16	0.76	1.08	1.11	1.41
CCAGACUUCACGCAAUCGGUC [Fam1B.1 aminoacylation ribozyme variant]	1.76	1.6	1.65	1.79	4.39	1.64
CCAGACUUGAAGCAAUCGGUC [Fam1B.1 aminoacylation ribozyme variant]	1.12	1.16	1.07	1.08	0.942	1.07
CCAUACGUCAAGCAAUCGGUC [Fam1B.1 aminoacylation ribozyme variant]	1.12	1.34	1.16	1.03	0.88	1.04
CCAUACUUCAAGCAACCGGUC [Fam1B.1 aminoacylation ribozyme variant]	1	0.894	0.794	0.74	1.06	1.06
CCAUACUUCAAGCAAUCAGUC [Fam1B.1 aminoacylation ribozyme variant]	0.81	0.804	2.64	0.659	7.22	0.884
CCAUACUUCAAGCAAUCUGUC [Fam1B.1 aminoacylation ribozyme variant]	0.555	0.384	0.251	0.439	0.503	0.536
CCAUCCUUCAAGCAAUCGGUC [Fam1B.1 aminoacylation ribozyme variant]	1.19	1.3	9.38	1.15	16.4	1.13
CCCCACAUCAAGCAAUCGGUC [Fam1B.1 aminoacylation ribozyme variant]	1.5	1.63	2.47	1.22	3.1	1.67
CCCCACUUCAAGAAAUCGGUC [Fam1B.1 aminoacylation ribozyme variant]	1.42	1.81	9.76	1.17	11.6	1.36

Sequence	self-aminoacylation (biotinyl-Val-oxazolone)	self-aminoacylation (biotinyl-Leu-oxazolone)	self-aminoacylation (biotinyl-Trp-oxazolone)	self-aminoacylation (biotinyl-Met-oxazolone)	self-aminoacylation (biotinyl-Phe-oxazolone)	self-aminoacylation (biotinyl-Ile-oxazolone)
CCCCACUUCAAGCAAACGGUC [Fam1B.1 aminoacylation ribozyme variant]	1.41	1.03	1.67	1.36	2.34	1.33
CCCCACUUCAAGCAACCGGUC [Fam1B.1 aminoacylation ribozyme variant]	2.15	2.05	2.18	1.82	3.09	1.99
CCCCACUUCAAGCAAGCGGUC [Fam1B.1 aminoacylation ribozyme variant]	2.38	2.61	5	2.33	9.34	2.15
CCCCACUUCAAGCAAUCAGUC [Fam1B.1 aminoacylation ribozyme variant]	1.14	1.13	6.51	0.987	19.8	0.981
CCCCACUUCAAGCAAUCGCUC [Fam1B.1 aminoacylation ribozyme variant]	2.55	2.99	4.28	2.93	8.76	2.08
CCCCACUUCAAGCAUUCGGUC [Fam1B.1 aminoacylation ribozyme variant]	3.06	2.48	5.46	2.61	10.9	2.65
CCCCACUUCAAGCUAUCGGUC [Fam1B.1 aminoacylation ribozyme variant]	1.71	1.12	2.01	1.05	2.16	1.42
CCCCACUUCAAGGAAUCGGUC [Fam1B.1 aminoacylation ribozyme variant]	2.15	2.62	13	2.33	11.3	2.4
CCCCACUUCCAGCAAUCGGUC [Fam1B.1 aminoacylation ribozyme variant]	2.48	2.35	2.16	1.78	1.79	2.18
CCCCCCUUCAAGCAAUCGGUC [Fam1B.1 aminoacylation ribozyme variant]	2.67	3.18	44.8	2	80.1	1.88
CCGCACUUCAAGCAAACGGUC [Fam1B.1 aminoacylation ribozyme variant]	1.3	0.684	1.04	0.724	0.946	0.937
CCGCACUUCAAGCAACCGGUC [Fam1B.1 aminoacylation ribozyme variant]	1.54	1.1	1.56	1.47	1.29	1.47
CCGCACUUCAAGCAAGCGGUC [Fam1B.1 aminoacylation ribozyme variant]	1.67	1.31	2	1.43	1.43	1.65
CCGCACUUCAAGCAAUCGCUC [Fam1B.1 aminoacylation ribozyme variant]	2.73	2.14	2.73	1.8	6.76	1.93
CCGCACUUCAAGCAAUCGGGC [Fam1B.1 aminoacylation ribozyme variant]	2.52	1.69	2.11	1.35	2.26	1.92
CCGCACUUCAAGCUAUCGGUC [Fam1B.1 aminoacylation ribozyme variant]	1.42	0.84	1.19	0.919	0.936	1.15
CCGUUUGCUAAUAGUCGCAAG [Fam3.1 aminoacylation ribozyme variant]	0.972	1.02	1.1	0.83	1.94	1.22
CCUACCCUGGUCAUCGAGUGA [Fam2.1 aminoacylation ribozyme variant]	4.14	7.58	9.17	6.64	49.8	3.88
CCUCACCUAGGUCAUCGGGUG [Fam2.2 aminoacylation ribozyme variant]	5.35	4.79	5.46	3.92	16.2	3.22
CCUCACUUCAACCAAUCGGUC [Fam1B.1 aminoacylation ribozyme variant]	1.27	1.84	27.6	1.35	57.5	1.28
CCUCACUUCAAGCAAUAGGUC [Fam1B.1 aminoacylation ribozyme variant]	0.592	0.553	0.622	0.468	1.26	0.573
CCUCACUUCAAGCAAUCAGUC [Fam1B.1 aminoacylation ribozyme variant]	0.921	1.01	6.56	0.83	21.2	0.781
CCUCACUUCAAGCAAUCCGUC [Fam1B.1 aminoacylation ribozyme variant]	0.873	0.736	0.756	0.613	1.94	0.935
CCUCACUUCAAGCAAUCGUUC [Fam1B.1 aminoacylation ribozyme variant]	0.637	0.604	0.754	0.473	1.29	0.664
CCUCACUUCAAGCAUUCGGUC [Fam1B.1 aminoacylation ribozyme variant]	1.43	1.16	1.37	1.14	1.36	1.3

— the supplement of paper PMC9233669
